# T1: Ulex europaeus lectin UEA-II (Ulex europaeus, UniProt P22973 P22973:1-249)
# T1 sequence: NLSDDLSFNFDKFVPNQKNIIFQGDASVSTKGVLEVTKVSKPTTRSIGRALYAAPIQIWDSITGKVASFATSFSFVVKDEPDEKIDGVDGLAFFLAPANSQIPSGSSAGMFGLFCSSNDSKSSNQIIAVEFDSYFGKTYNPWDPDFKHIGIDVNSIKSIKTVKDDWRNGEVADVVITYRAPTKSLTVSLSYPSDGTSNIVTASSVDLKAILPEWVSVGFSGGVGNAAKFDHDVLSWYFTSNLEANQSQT
# T2: wheat germ agglutinin (WGA) (Triticum vulgare, UniProt P10968 P10968:27-197)
# T2 sequence: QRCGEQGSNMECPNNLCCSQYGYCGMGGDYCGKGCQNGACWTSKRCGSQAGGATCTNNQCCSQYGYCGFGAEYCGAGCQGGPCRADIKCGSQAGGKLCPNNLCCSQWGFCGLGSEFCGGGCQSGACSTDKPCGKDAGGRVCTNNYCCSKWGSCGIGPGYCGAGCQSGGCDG
# T3: L-selectin (LS-Rg) (Homo sapiens, UniProt P14151 P14151:39-332)
# T3 chain: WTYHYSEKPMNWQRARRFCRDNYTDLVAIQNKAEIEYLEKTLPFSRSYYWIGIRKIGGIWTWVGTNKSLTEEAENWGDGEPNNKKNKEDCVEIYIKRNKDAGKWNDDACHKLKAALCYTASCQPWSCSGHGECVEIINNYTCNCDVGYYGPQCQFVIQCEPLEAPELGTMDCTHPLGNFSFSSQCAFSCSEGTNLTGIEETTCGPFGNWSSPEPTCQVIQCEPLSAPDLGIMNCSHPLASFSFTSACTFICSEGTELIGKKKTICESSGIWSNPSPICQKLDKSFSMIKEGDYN
# T4: P-selectin (PS-Rg) (Homo sapiens, UniProt P16109 P16109:42-321)
# T4 chain: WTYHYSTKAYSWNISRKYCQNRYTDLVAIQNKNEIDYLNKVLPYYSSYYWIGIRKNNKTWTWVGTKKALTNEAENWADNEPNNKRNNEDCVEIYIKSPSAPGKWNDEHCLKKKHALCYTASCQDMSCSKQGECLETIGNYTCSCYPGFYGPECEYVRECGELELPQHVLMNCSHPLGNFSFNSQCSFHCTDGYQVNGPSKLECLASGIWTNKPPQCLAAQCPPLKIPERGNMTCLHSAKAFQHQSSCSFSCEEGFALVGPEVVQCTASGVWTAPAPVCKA
# T5: E-selectin (ES-Rg) (Homo sapiens, UniProt P16581 P16581:22-556)
# T5 chain: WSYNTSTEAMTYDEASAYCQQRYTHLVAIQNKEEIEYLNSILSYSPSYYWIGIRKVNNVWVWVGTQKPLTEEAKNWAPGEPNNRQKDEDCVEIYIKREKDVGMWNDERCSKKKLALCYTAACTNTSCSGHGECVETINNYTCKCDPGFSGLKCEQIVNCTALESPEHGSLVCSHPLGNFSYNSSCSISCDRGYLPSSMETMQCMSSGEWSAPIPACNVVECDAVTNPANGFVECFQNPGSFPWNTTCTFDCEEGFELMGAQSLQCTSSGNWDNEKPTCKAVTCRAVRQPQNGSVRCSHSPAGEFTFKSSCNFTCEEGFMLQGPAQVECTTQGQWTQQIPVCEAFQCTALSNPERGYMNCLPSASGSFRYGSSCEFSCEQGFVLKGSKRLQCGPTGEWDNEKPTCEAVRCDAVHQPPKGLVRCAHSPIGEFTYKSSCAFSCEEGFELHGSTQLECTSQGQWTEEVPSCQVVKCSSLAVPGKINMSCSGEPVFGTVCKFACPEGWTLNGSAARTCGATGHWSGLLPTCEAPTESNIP
# Columns and labels:
# [1] = target: T1, Ulex europaeus lectin UEA-II; assay: filter; HBSS, room temp; details: tags: E Y Laboratories; label: 32P
# Experimental: (§1) The specifically eluted fraction was processed for use in the following round. Fractions eluted from immobilized WGA were heated at 90° C. for 5 minutes in 1% SDS, 2% β-mercaptoethanol and extracted with phenol/chloroform. RNA was reverse transcribed into cDNA by AMV reverse transcriptase at 48° C. for 60 min in 50 mM Tris-Cl pH (8.3), 60 mM NaCl, 6 mM Mg(OAc)_2, 10 mM DTT, 100 pmol DNA primer, 0.4 mM each of dNTPs, and 0.4 unit/µl AMV RT. […] C) Nitrocellulose Filter Partitioning As described in SELEX Patent Applications, the nitrocellulose filter partitioning method was used to determine the affinity of RNA ligands for WGA and for other proteins. Filter discs (nitrocellulose/cellulose acetate mixed matrix, 0.45 µm pore size, Millipore; or pure nitrocellulose, 0.45 µm pore size, Bio-Rad) were placed on a vacuum manifold and washed with 4 ml of HBSS buffer under vacuum. Reaction mixtures, containing ^32P labeled RNA pools and unlabeled WGA, were incubated in HBSS for 10 min at room temperature, filtered, and then immediately washed with 4 ml HBSS. The filters were air-dried and counted in a Beckman LS6500 liquid scintillation counter without fluor. WGA is a homodimer, molecular weight 43.2 kD, with 4 GlcNAc binding sites per dimer. For affinity calculations, we assume one RNA ligand binding site per monomer (two per dimer). […]
# [2] = target: T2, wheat germ agglutinin (WGA); assay: filter; HBSS, room temp; printed as 11.2, SEQ 40; details: tags: free lectin, E Y Laboratories; label: 32P
# Experimental: as §1, with “fluor.” for “fluor. WGA is a homodimer, molecular weight 43.2 kD, with 4 GlcNAc binding sites per dimer. For affinity calculations, we assume one RNA ligand binding site per monomer (two per dimer).”
# The dissociation constants for representative members of families 1–9 and orphan ligands were determined by nitrocellulose filter binding experiments and are listed in Table III. […]
# L-selectin (LS-Rg) [3] = target: T3, L-selectin (LS-Rg); assay: filter; room temp; 590 pM at 37 C; details: tags: human IgG2 Fc fusion (provided by A. Varki); label: 32P; hairpin
# L-selectin (LS-Rg) [4] = target: T3, L-selectin (LS-Rg); assay: filter; room temp; 9.6 nM at 37 C; details: tags: human IgG2 Fc fusion (provided by A. Varki); label: 32P
# L-selectin (LS-Rg) [5] = target: T3, L-selectin (LS-Rg); assay: filter; room temp; 6.8 nM at 37 C; details: tags: human IgG2 Fc fusion (provided by A. Varki); label: 32P; hairpin
# L-selectin (LS-Rg) [6] = target: T3, L-selectin (LS-Rg); assay: filter; room temp; 23.2 nM at 37 C; details: tags: human IgG2 Fc fusion (provided by A. Varki); label: 32P; hairpin
# L-selectin (LS-Rg) [7] = target: T3, L-selectin (LS-Rg); assay: filter; room temp; 1.8 nM at 37 C; details: tags: human IgG2 Fc fusion (provided by A. Varki), label: 32P
# L-selectin (LS-Rg) [8] = target: T3, L-selectin (LS-Rg); assay: filter; room temp; 11.8 nM at 37 C; details: tags: human IgG2 Fc fusion (provided by A. Varki); label: 32P; hairpin
# P-selectin (PS-Rg) = target: T4, P-selectin (PS-Rg); assay: filter; room temp, Ca/Mg buffer; details: tags: lectin, EGF and first two CRD domains fused to human IgG1 Fc (provided by A. Varki); chain copies: 2 (dimeric Fc chimera, inferred)
# Experimental: (§2) RNA was reverse transcribed into cDNA by AMV reverse transcriptase at 48° C. for 60 min in 50 mM Tris-Cl pH (8.3), 60 mM NaCl, 6 mM Mg(OAc)_2, 10 mM DTT, 100 pmol DNA primer, 0.4 mM each of dNTPs, and 0.4 unit/µl AMV RT. […] C) Nitrocellulose Filter Partitioning As described in SELEX Patent Applications, the nitrocellulose filter partitioning method was used to determine the affinity of RNA ligands for WGA and for other proteins. Filter discs (nitrocellulose/cellulose acetate mixed matrix, 0.45 µm pore size, Millipore; or pure nitrocellulose, 0.45 µm pore size, Bio-Rad) were placed on a vacuum manifold and washed with 4 ml of HBSS buffer under vacuum. Reaction mixtures, containing ^32P labeled RNA pools and unlabeled WGA, were incubated in HBSS for 10 min at room temperature, filtered, and then immediately washed with 4 ml HBSS. The filters were air-dried and counted in a Beckman LS6500 liquid scintillation counter without fluor. WGA is a homodimer, molecular weight 43.2 kD, with 4 GlcNAc binding sites per dimer. For affinity calculations, we assume one RNA ligand binding site per monomer (two per dimer). The monomer concentration is defined as 2 times the dimer concentration. The equilibrium dissociation constant, K_d, for an RNA pool or specific ligand that binds monophasically is given by the equation $$K_d=[P_f][R_f]/[RP]$$
# (§3) The affinity of representative cloned ligands for LS-Rg, ES-Rg, PS-Rg, CD22β-Rg and WGA was determined by nitrocellulose partitioning and the results shown in Table XIV. The ligands are highly specific for L-selectin.
# (§4) *Kds were determined at room temperature.
# E-selectin (ES-Rg) = target: T5, E-selectin (ES-Rg); assay: filter; room temp, Ca/Mg buffer; details: tags: extracellular domain fused to human IgG1 Fc (provided by A. Varki); chain copies: 2 (dimeric Fc chimera, inferred)
# Experimental: as §2, §3, §4
# L-selectin (LS-Rg) [9] = target: T3, L-selectin (LS-Rg); assay: filter; room temp; 6.0 nM at 37 C; details: tags: human IgG2 Fc fusion (provided by A. Varki); label: 32P
# L-selectin (LS-Rg) [10] = target: T3, L-selectin (LS-Rg); assay: filter; room temp; 0.65 nM at 37 C; details: tags: human IgG2 Fc fusion (provided by A. Varki); label: 32P; hairpin
# L-selectin (LS-Rg) [11] = target: T3, L-selectin (LS-Rg); assay: filter; room temp; 8.4 nM at 37 C; details: tags: human IgG2 Fc fusion (provided by A. Varki); label: 32P
# L-selectin (LS-Rg) [12] = target: T3, L-selectin (LS-Rg); assay: filter; room temp; 8.8 nM at 37 C; details: tags: human IgG2 Fc fusion (provided by A. Varki); label: 32P; hairpin
# L-selectin (LS-Rg) [13] = target: T3, L-selectin (LS-Rg); assay: filter; apparently 37 C column; synthetic full-length 201 control 3.8 nM; details: tags: human IgG2 Fc fusion (provided by A. Varki); label: 32P; hairpin
binder,measurement,setting,value
"11.20 (ssRNA, 2'-NH2 all C and U) RNA: GGGAAAAGCGAAUCAUACACAAGAUUGGUCGUACUGGACAGAGCCGUGGUAGAGGGAUUGGGACAAAGUGUCAGCUCCGCCAGAGACCAACCGAGAA",Kd,[1],2200 nM
same,Kd,[2],1.4 nM
179 (ssDNA) DNA: CTACCTACGATCTGACTAGCCACATGCCTGACGCGGTACAAGGCCTGGACGTAACGTTGGCTTACTCTCATGTAGTTCC,Kd,L-selectin (LS-Rg) [3],0.18 nM
109 (ssDNA) DNA: CTACCTACGATCTGACTAGCCCACCGTGATGCACGATACATGAGGGTGTGTCAGCGCATGCTTACTCTCATGTAGTTCC,Kd,L-selectin (LS-Rg) [4],0.19 nM
139 (ssDNA) DNA: CTACCTACGATCTGACTAGCGGACAAGGCACTCGACGTAGTTTATAACTCCCTCCGGGCCGCTTACTCTCATGTAGTTCC,Kd,L-selectin (LS-Rg) [5],0.21 nM
112 (ssDNA) DNA: CTACCTACGATCTGACTAGCCGCATCCACATAGTTCAAGGGGCTACACGAAATATTGCAGCTTACTCTCATGTAGTTCC,Kd,L-selectin (LS-Rg) [6],0.3 nM
128 (ssDNA) DNA: CTACCTACGATCTGACTAGCAGGACCAAGGTGTTAAACGGCTCCCCTGGCTATGCCTCTTGCTTACTCTCATGTAGTTCC,Kd,L-selectin (LS-Rg) [7]; hairpin,0.31 nM
111 (ssDNA) DNA: CTACCTACGATCTGACTAGCTACACAAGGTGCTAAACGTAGAGCCAGATCGGATCTGAGCGCTTACTCTCATGTAGTTCC,Kd,L-selectin (LS-Rg) [8],0.33 nM
same,Kd,P-selectin (PS-Rg),840 nM
same,Kd,E-selectin (ES-Rg),1200 nM
206 (ssDNA) DNA: CTACCTACGATCTGACTAGCAGCGTTGTACGGGGTTACACACAACGATTTAGATGCTCTGCTTACTCTCATGTAGTTCC,Kd,L-selectin (LS-Rg) [9],0.33 nM
same,Kd,P-selectin (PS-Rg),600 nM
same,Kd,E-selectin (ES-Rg),100 nM
137 (ssDNA) DNA: CTACCTACGATCTGACTAGCTACCCCTTGGGCCTCATAGACAAGGTCTTAAACGTTAGCGCTTACTCTCATGTAGTTCC,Kd,L-selectin (LS-Rg) [10],0.52 nM
214 (ssDNA) DNA: CTACCTACGATCTGACTAGCTGATGCGACTTTAGTCGAACGTTACTGGGGCTCAGAGGACAGCTTACTCTCATGTAGTTCC,Kd,L-selectin (LS-Rg) [11],0.66 nM
145 (ssDNA) DNA: CTACCTACGATCTGACTAGCCCCCGAAGAACATTTTACAAGGTGCTAAACGTAAAATCAGGCTTACTCTCATGTAGTTCC,Kd,L-selectin (LS-Rg) [12],0.92 nM
TAGCCAAGGTAACCAGTACAAGGTGCTAAACGTAATGGCTTCGGCTTAC (ssDNA) [201T1 (49-mer)],Kd,L-selectin (LS-Rg) [13],4.8 nM
GTAACCAGTACAAGGTGCTAAACGTAATGGCTTCGGCTTAC (ssDNA) [201T3 (41-mer)],Kd,L-selectin (LS-Rg) [13],43 nM
181 (ssDNA) DNA: CTACCTACGATCTGACTAGCCATCAAGGACTTTGCCCGAAACCCTAGGTTCACGTGTGGGGCTTACTCTCATGTAGTTCC,Kd,L-selectin (LS-Rg) [7],0.084 nM
same,Kd,P-selectin (PS-Rg),1600 nM
same,Kd,E-selectin (ES-Rg),37 nM
